Each block holds one sequence with its values, some of them ahead of it.
What was measured:
[1] = target: HLA-A*30:01; experiment: IEDB peptide-MHC binding, purified MHC/competitive/radioactivity; filed as Kd, often an IC50 or EC50 that approximates it; ≥ and ≤ were set here for values at or beyond the usual limits of such assays
[2] = target: HLA-B*53:01; experiment: as above
[3] = target: HLA-A*24:02; experiment: IEDB peptide-MHC binding, purified MHC/competitive/fluorescence; ≥ and ≤ were set here for values at or beyond the usual limits of such assays
[4] = target: HLA-A*02:01; experiment: as above
[5] = target: HLA-B*44:03; experiment: IEDB peptide-MHC binding, purified MHC/competitive/radioactivity; filed as Kd, often an IC50 or EC50 that approximates it; ≥ and ≤ were set here for values at or beyond the usual limits of such assays
[6] = target: HLA-A*32:01; experiment: as above
[7] = target: HLA-B*07:02; experiment: IEDB peptide-MHC binding, purified MHC/direct/fluorescence; filed as Kd, often an IC50 or EC50 that approximates it; ≥ and ≤ were set here for values at or beyond the usual limits of such assays
[8] = target: HLA-B*44:02; experiment: IEDB peptide-MHC binding, purified MHC/competitive/radioactivity; filed as Kd, often an IC50 or EC50 that approximates it; ≥ and ≤ were set here for values at or beyond the usual limits of such assays
[9] = target: HLA-A*69:01; experiment: IEDB peptide-MHC binding, purified MHC/direct/fluorescence; filed as Kd, often an IC50 or EC50 that approximates it; ≥ and ≤ were set here for values at or beyond the usual limits of such assays
[10] = target: HLA-A*02:01; experiment: as above
[11] = target: HLA-A*26:01; experiment: IEDB peptide-MHC binding, purified MHC/competitive/radioactivity; filed as Kd, often an IC50 or EC50 that approximates it; ≥ and ≤ were set here for values at or beyond the usual limits of such assays; settings: source organism: Dengue virus 4 Philippines/H241/1956
[12] = target: HLA-A*01:01; experiment: IEDB peptide-MHC binding, purified MHC/direct/fluorescence; filed as Kd, often an IC50 or EC50 that approximates it; ≥ and ≤ were set here for values at or beyond the usual limits of such assays
[13] = target: HLA-A*02:01; experiment: IEDB peptide-MHC binding, purified MHC/competitive/fluorescence; filed as Kd, often an IC50 or EC50 that approximates it; ≥ and ≤ were set here for values at or beyond the usual limits of such assays
[14] = target: HLA-B*40:01; experiment: IEDB peptide-MHC binding, purified MHC/competitive/radioactivity; filed as Kd, often an IC50 or EC50 that approximates it; ≥ and ≤ were set here for values at or beyond the usual limits of such assays
[15] = target: HLA-A*11:01; experiment: IEDB peptide-MHC binding, purified MHC/direct/fluorescence; filed as Kd, often an IC50 or EC50 that approximates it; ≥ and ≤ were set here for values at or beyond the usual limits of such assays
[16] = target: HLA-B*15:01; experiment: as above
[17] = target: HLA-B*58:01; experiment: as above; settings: source organism: Homo sapiens
[18] = target: HLA-A*03:01; experiment: as above; settings: source organism: Brucella abortus
[19] = target: HLA-A*01:01; experiment: IEDB peptide-MHC binding, purified MHC/competitive/radioactivity; filed as Kd, often an IC50 or EC50 that approximates it; ≥ and ≤ were set here for values at or beyond the usual limits of such assays; settings: source organism: Dengue virus 1 Singapore/S275/1990
[20] = source organism: Vaccinia virus WR
[21] = source organism: Dengue virus 4 Philippines/H241/1956
[22] = source organism: Zaire ebolavirus
[23] = source organism: Dengue virus 3 Martinique/1243/1999
[24] = source organism: Mycobacterium tuberculosis
[25] = source organism: Dengue virus 2 Jamaica/1409/1983
[26] = source organism: Dengue virus 1 Singapore/S275/1990
[27] = source organism: Clostridium botulinum
[28] = source organism: Vaccinia virus Copenhagen
[29] = source organism: Dengue virus 1 Brazil/97-11/1997
[30] = source organism: Marburg virus - Musoke, Kenya, 1980
[31] = source organism: Vaccinia virus
[32] = source organism: Brucella abortus

Sequence: MSRRYSREK
Kd [1, 20]: 1.31 nM

Sequence: EPDYEVDEDI
Kd [2, 21]: 1170 nM

Sequence: VQLESRFTP
IC50 [3, 22]: 59.2 µM
IC50 [4, 22]: ≥ 197 µM

Sequence: RETACLGKAY
Kd [5, 23]: 17.9 nM

Sequence: VNPEIDTTI
IC50 [3, 22]: 16.1 µM
IC50 [4, 22]: ≥ 358 µM

Sequence: ITFLRVLSI
Kd [6, 21]: 100 nM

Sequence: MIRAQAGSL
Kd [7, 24]: 0.0335 µM

Sequence: MEVEIWTRE
Kd [5, 21]: 1080 nM

Sequence: MEDKTPVTTW
Kd [5, 23]: 180 nM
Kd [8, 23]: 115 nM

Sequence: NHALSELPET
Kd [1, 25]: 1240 nM

Sequence: TDFQSHQLW
Kd [8, 26]: 37 nM

Sequence: MFLITENKIW
Kd ([2]; source organism: Dengue virus 1 Nauru/West Pac/1974): 8870 nM

Sequence: KMFSNNVLI
Kd [6, 20]: 1.1 nM

Sequence: FLWSSIIFK
Kd [9, 27]: 7 µM
Kd [10, 27]: 4430 nM

Sequence: FPQSNAPIQ
Kd [2, 23]: 69.8 nM

Sequence: GEIGAIALD
Kd [5, 23]: 907 nM

Sequence: AVSRGSAKLQ
Kd [1, 23]: 1290 nM

Sequence: REEEEAGVLW
Kd [5, 25]: 36.1 nM
Kd [8, 25]: 51.2 nM

Sequence: AWRTATLIL
Kd [1, 23]: 592 nM

Sequence: ASKTINALV
Kd [1, 20]: 0.175 nM

Sequence: ETRAETWMSS
Kd [6, 21]: ≥ 47200 nM
Kd [11]: 504 nM

Sequence: SVNSFTLLI
Kd [6, 28]: 2.63 nM

Kd ([7]; source organism: Homo sapiens): 14.6 µM
Sequence: LLWKTWYPC

Sequence: QYSDRRWCFD
Kd [6, 29]: ≥ 53500 nM

Sequence: KAMWKYPFS
Kd [1, 20]: 250 nM

Kd ([7]; source organism: Homo sapiens): ≥ 87.2 µM
Sequence: VAEGQTLDL

Sequence: MTLFKSILF
Kd [6, 20]: 11.3 nM

Sequence: GVSGGAWVDL
Kd [6, 21]: ≥ 69900 nM

Sequence: KFRDMITFR
Kd ([12]; source organism: Vibrio cholerae): ≥ 20 µM

Sequence: LLNNSLGSV
Kd [13, 28]: 3.6 nM

Sequence: ITDVIVQSI
Kd [6, 20]: 256 nM

Sequence: SEFQIYKKSG
Kd [5, 25]: 3730 nM
Kd [14, 25]: 407 nM

Sequence: YPKTKLTDW
Kd [2, 21]: 1440 nM

Sequence: ILLFVIVIY
Kd [6, 20]: 952 nM

Sequence: KEIGRMLNIL
Kd [14, 25]: 4.83 nM

Sequence: KVRTNAAMG
Kd [1, 23]: 11.3 nM

Kd ([9]; source organism: Homo sapiens): 5.28 µM
Kd ([15]; source organism: Homo sapiens): 8.98 µM
Kd ([12]; source organism: Homo sapiens): 11 µM
Kd ([7]; source organism: Homo sapiens): 17.4 µM
Kd ([16]; source organism: Homo sapiens): 108 nM
Kd [17]: 22 nM
Sequence: ISLICGHSY

Sequence: PYFGPAAEG
IC50 [3, 22]: 13 µM

Sequence: KTTWLPVLL
Kd [6, 29]: 148 nM

Sequence: MTLGMCCII
Kd [6, 25]: 2590 nM

Sequence: HIYFVSLLL
Kd [6, 20]: 15.3 nM

Sequence: VDNLTYVQL
IC50 [3, 22]: ≥ 117 µM

Sequence: TEATQLATL
Kd [14, 23]: 8.32 nM

Sequence: SLFSLLLVI
Kd [6, 20]: 27.5 nM

Sequence: RAREQISNL
Kd ([1]; source organism: Cowpox virus): 2.73 nM

Sequence: FLWWNAAPA
Kd [9, 24]: ≤ 0.001 µM

Sequence: KSKFPRSML
Kd [1, 20]: 31.2 nM

Sequence: MLAKYDHLV
Kd [9, 30]: 0.104 µM
Kd [10, 30]: 27 nM

Sequence: IGFLVLWIGT
Kd [6, 21]: ≥ 69900 nM

Sequence: NIGNTKSNI
IC50 [3, 31]: ≥ 176 µM
IC50 [4, 31]: ≥ 662 µM

Kd ([13]; source organism: Escherichia coli): 15.3 nM
Sequence: KVHADDIPV

Sequence: KEENLVNSL
Kd [14, 25]: 2.17 nM

Sequence: RFRFRSVYG
Kd [1, 20]: 0.357 nM

Sequence: RTYSDPLAL
Kd [6, 29]: 33.4 nM

Sequence: HLGNVKYLV
Kd ([13]; source organism: Plasmodium falciparum): 6.5 nM

Sequence: KLRGVAPL
Kd ([13]; source organism: Influenza A virus (A/Swine/Indiana/1726/1988(H1N1))): 2250 nM

Kd ([9]; source organism: Homo sapiens): 4.39 µM
Kd ([15]; source organism: Homo sapiens): 3.36 µM
Kd ([16]; source organism: Homo sapiens): 3710 nM
Sequence: EVDPIGHLY

Sequence: WFNYLFGGF
IC50 ([3]; source organism: Variola virus): 0.484 µM
IC50 ([4]; source organism: Variola virus): ≥ 104 µM

Sequence: VQGPGGSTY
Kd [18]: 14.5 µM
Kd [15, 32]: 8.94 µM
Kd [16, 32]: 190 nM

Sequence: LTDFQSHQLW
Kd [19]: 3.68 µM
Kd [2, 26]: 1580 nM

Sequence: AARISSCLK
Kd ([12]; source organism: Yersinia pestis): ≥ 20 µM

Sequence: LGVIHNSTL
IC50 [3, 22]: 50.9 µM
IC50 [4, 22]: 69.1 µM
